The chains are these.
B1: H341G: modified GLD: SEQ ID NO: 1 with substitution H341G (protein, listed as Aspergillus terreus)
chain: MLGKLSFLSALSLAVAAPLSNSTSAKYDYIVIGGGTSGLAVANRLSEDPNVNVLILEAGGSVWNNPNVTNVDGYGLAFGSDIDWQYQSVNQPYGGNLSQVLRAGKALGGTSTINGMAYTRAEDVQIDAWETIGNTGWTWKNLFPYYRKSENFTVPTKSQTSLGASYEAGAHGHEGPLDVAFTQIESNNLTTYLNRTFQGMGLPWTEDVNGGKMRGFNLYPSTVNLEEYVREDAARAYYWPYKSRPNLHVLLNTFANRIVWDGEAHDGHITASGVEITSRNGTVRVINAEKEVIVSAGALKSPAILELSGIGNPSVLDKHNIPVKVNLPTVGENLQDQVNSGMDASGNTSISGTKAVSYPDVYDVFGDEAESVAKQIRANLKQYAADTAKANGNIMKAADLERLFEVQYDLIFKGRVPIAEVLNYPGSATSVFAEFWALLPFARGSVHIGSSNPAEFPVINPNYFMLDWDAKSYVAVAKYIRRSFESYPLSSIVKESTPGYDVIPRNASEQSWKEWVFDKNYRSNFHPVGTAAMMPREIGGVVDERLNVYGTTNVRVVDASVLPFQVCGHLVSTLYAVAERAADLIKADAGRR
modifications: SIGNAL (1)..(19)
B2: D343I: modified GLD: SEQ ID NO: 1 with substitution D343I (protein, listed as Aspergillus terreus)
chain: B1 chain with G341H, D343I
modifications: SIGNAL (1)..(19)
B3: H341P: modified GLD: SEQ ID NO: 1 with substitution H341P (protein, listed as Aspergillus terreus)
chain: B1 chain with G341P
modifications: SIGNAL (1)..(19)
B4: H341R: modified GLD: SEQ ID NO: 1 with substitution H341R (protein, listed as Aspergillus terreus)
chain: B1 chain with G341R
modifications: SIGNAL (1)..(19)
B5: H341K: modified GLD: SEQ ID NO: 1 with substitution H341K (protein, listed as Aspergillus terreus)
chain: B1 chain with G341K
modifications: SIGNAL (1)..(19)
B6: H341Q: modified GLD: SEQ ID NO: 1 with substitution H341Q (protein, listed as Aspergillus terreus)
chain: B1 chain with G341Q
modifications: SIGNAL (1)..(19)
B7: H341I: modified GLD: SEQ ID NO: 1 with substitution H341I (protein, listed as Aspergillus terreus)
chain: B1 chain with G341I
modifications: SIGNAL (1)..(19)
B8: D343H: modified GLD: SEQ ID NO: 1 with substitution D343H (protein, listed as Aspergillus terreus)
chain: B1 chain with G341H, D343H
modifications: SIGNAL (1)..(19)
B9: D343A: modified GLD: SEQ ID NO: 1 with substitution D343A (protein, listed as Aspergillus terreus)
chain: B1 chain with G341H, D343A
modifications: SIGNAL (1)..(19)
B10: H341N: modified GLD: SEQ ID NO: 1 with substitution H341N (protein, listed as Aspergillus terreus)
chain: B1 chain with G341N
modifications: SIGNAL (1)..(19)
B11: H341Y: modified GLD: SEQ ID NO: 1 with substitution H341Y (protein, listed as Aspergillus terreus)
chain: B1 chain with G341Y
modifications: SIGNAL (1)..(19)
B12: D343E: modified GLD: SEQ ID NO: 1 with substitution D343E (protein, listed as Aspergillus terreus)
chain: B1 chain with G341H, D343E
modifications: SIGNAL (1)..(19)
B13: H341M: modified GLD: SEQ ID NO: 1 with substitution H341M (protein, listed as Aspergillus terreus)
chain: B1 chain with G341M
modifications: SIGNAL (1)..(19)
B14: H341S: modified GLD: SEQ ID NO: 1 with substitution H341S (protein, listed as Aspergillus terreus)
chain: B1 chain with G341S
modifications: SIGNAL (1)..(19)
B15: D343R: modified GLD: SEQ ID NO: 1 with substitution D343R (protein, listed as Aspergillus terreus)
chain: B1 chain with G341H, D343R
modifications: SIGNAL (1)..(19)
B16: D343K: modified GLD: SEQ ID NO: 1 with substitution D343K (protein, listed as Aspergillus terreus)
chain: B1 chain with G341H, D343K
modifications: SIGNAL (1)..(19)
B17: D343L: modified GLD: SEQ ID NO: 1 with substitution D343L (protein, listed as Aspergillus terreus)
chain: B1 chain with G341H, D343L
modifications: SIGNAL (1)..(19)
B18: H341V: modified GLD: SEQ ID NO: 1 with substitution H341V (protein, listed as Aspergillus terreus)
chain: B1 chain with G341V
modifications: SIGNAL (1)..(19)
B19: D343F: modified GLD: SEQ ID NO: 1 with substitution D343F (protein, listed as Aspergillus terreus)
chain: B1 chain with G341H, D343F
modifications: SIGNAL (1)..(19)
B20: D343Q: modified GLD: SEQ ID NO: 1 with substitution D343Q (protein, listed as Aspergillus terreus)
chain: B1 chain with G341H, D343Q
modifications: SIGNAL (1)..(19)
B21: D343M: modified GLD: SEQ ID NO: 1 with substitution D343M (protein, listed as Aspergillus terreus)
chain: B1 chain with G341H, D343M
modifications: SIGNAL (1)..(19)

Where a chain is given by its changes, count along the chain named. Numbers in names are those of the source.

A short description of one series: Relative enzymatic activity of GLD (DCIP/1-m-PMS, plate reader, yeast culture supernatant) with proflavin hydrochloride present. Type of series: biochemical. Particulars: site-specific mutants, inhibitor final concentration 1 mM. On the procedure: (§1) The susceptibility defined in the present specification is evaluated in terms of a relative activity that is determined in a system wherein the inhibitor coexists or not. The relative activity is derived from a relative value (%) of an enzymatic activity (a sample value) obtained with the addition of the inhibitor in the determination of the enzymatic activity described in the present specification as compared with an enzymatic activity (a blank value) as “100%” obtained without the addition of the inhibitor in the same determination. Thus, the higher the relative activity is, the less the susceptibility to the inhibitor is (or the more the susceptibility to the inhibitor is reduced), vice versa.
(§2) The enzymatic activity is determined in the following manner in Examples 3 and 6 wherein a plate reader (Japan Molecular Device Corporation, SpectraMax Plus384) is used. Thus, culture supernatant that had been diluted in advance with an appropriate magnification is added to a 96-well microplate with an amount of 100 μl per well. A reagent for the determination of the enzymatic activity comprising phosphate buffer (pH 7.0), 1.0 M D-glucose, 3 mM DCIP, 3 mM 1-m-PMS and methanol with a volume ratio of 0.1:1:0.14:0.2:0.06 is added to the 96-well microplate with an amount of 100 μl per well, and a change in the absorbance of DCIP at 600 nm (ΔABS/min) is then determined. The enzymatic activity can be calculated by conversion in proportion to a change in the absorbance of an enzyme solution for which the enzymatic activity has already been known by the above-mentioned activity determination procedure using the spectrophotometer.
(§3) In the following examples, a value of the enzymatic activity determined by the spectrometer or plate reader using the above reagent composition is considered as a blank value. On the other hand, a sample value is determined using a methanol solution comprising the inhibitor such as 1,10-phenanthroline or proflavin hydrochloride at a final concentration of 1 mM instead of the methanol. Enzymatic activity (unit/mL)=(−ΔABS/16.3)×3.0/0.05×(Dilution ratio of enzyme) [Equation 1]
Consider B1, for which the “Relative Activity [%] Proflavin hydrochloride” value came out at 76.9%.
Take B2: the “Relative Activity [%] Proflavin hydrochloride” value turned out to be 71.5%.
B3: the “Relative Activity [%] Proflavin hydrochloride” value was 43.2%.
With B4, the “Relative Activity [%] Proflavin hydrochloride” value turned out to be 69.5%.
B5: the “Relative Activity [%] Proflavin hydrochloride” value worked out at 61.3%.
Consider B6, for which the “Relative Activity [%] Proflavin hydrochloride” value is recorded as 68.1%.
On to B7, for which the “Relative Activity [%] Proflavin hydrochloride” value came to 64.4%.
As for B8, the “Relative Activity [%] Proflavin hydrochloride” value came out at 62.8%.
Still for that read-out and setting: the result for B9 reads 51.2%.
Regarding B10, the “Relative Activity [%] Proflavin hydrochloride” value worked out at 81.5%.
The same measure, in the same setting: the figure for B11 is 77.8%; for B12 it is 58.2%; for B13 it is 71.4%.
In the case of B14, the “Relative Activity [%] Proflavin hydrochloride” value worked out at 76.6%.
For B15, the “Relative Activity [%] Proflavin hydrochloride” value amounted to 37.9%.
The same measure, in the same setting: the figure for B16 is 51.8%; for B17 it is 73.2%.
With B18, the “Relative Activity [%] Proflavin hydrochloride” value stood at 71.4%.
Regarding B19, the “Relative Activity [%] Proflavin hydrochloride” value amounted to 65.7%.
On the same count and under the same terms, the result for B20 reads 47.0%; that for B21, 52.9%.

The next series in a line: Relative enzymatic activity of GLD (DCIP/1-m-PMS, plate reader, yeast culture supernatant) with 1,10-phenanthroline present. The series is classed as biochemical. The note with it: site-specific mutants, inhibitor final concentration 1 mM. Here is the method: as §1, §2, §3
Into each well of a 96-well microplate (manufactured by Nunc, Inc.), a YPD medium containing 125 μL of 1.0% (w/v) yeast extract (manufactured by BD), 2.0% (w/v) tryptone (manufactured by BD), 2.0% (w/v) glucose (manufactured by Wako Pure Chemical Industries, Ltd.) was dispensed, and the transformant colonies obtained in Example 2 were inoculated thereinto one by one.
After shaking culture at 30° C. and 1,000 rpm for 24 hours, the culture mixture was centrifuged and the supernatant was collected.
According to the above-mentioned method for the determination of enzymatic activity, a blank value and a sample value were determined using a plate reader, and the relative activity (%) was obtained by dividing the sample value by the blank value.
B1: the “Relative Activity [%] 1,10-Phenanthroline” value was 93.8%.
Still for that read-out and setting: the figure for B2 is 88.6%; for B3 it is 88.3%.
The same measure, in the same setting: the figure for B4 is 78.6%; for B5 it is 99.2%; for B6 it is 97.5%.
Still for that read-out and setting: the figure for B7 is 97.4%; for B8 it is 87.5%; for B9 it is 72.5%.
For the molecule B10, the “Relative Activity [%] 1,10-Phenanthroline” value was determined as 93.3%.
Still for that read-out and setting: the figure for B11 is 93.6%; for B12 it is 61.4%.
In the case of B13, the “Relative Activity [%] 1,10-Phenanthroline” value amounted to 95.4%.
Take B14: the “Relative Activity [%] 1,10-Phenanthroline” value is on record as 90.4%.
With B15, the “Relative Activity [%] 1,10-Phenanthroline” value amounted to 80.7%.
Take B16: the “Relative Activity [%] 1,10-Phenanthroline” value is reported as 95.9%.
The same measure, in the same setting: the figure for B17 is 100.5%.
Regarding B18, the “Relative Activity [%] 1,10-Phenanthroline” value is given as 96.1%.
Still for that read-out and setting: the result for B19 reads 95.3%; that for B20, 86.2%; that for B21, 91.2%.

Values taken from patent US8969060B2, “Modified glucose dehydrogenase” (Ikeda Food Research Co., Ltd., priority 2011, dated 2015).
